Measurements taken from IntAct's records for PubMed 29039417.

B1: Protein PTHB1 (Homo sapiens), Q3SYG4 (parent)
chain: MSLFKARDWWSTILGDKEEFDQGCLCLANVDNSGNGQDKIIVGSFMGYLRIFSPHPAKTGDGAQAEDLLLEVDLRDPVLQVEVGKFVSGTEMLHLAVLHSRKLCVYSVSGTLGNVEHGNQCQMKLMYEHNLQRTACNMTYGSFGGVKGRDLICIQSMDGMLMVFEQESYAFGRFLPGFLLPGPLAYSSRTDSFLTVSSCQQVESYKYQVLAFATDADKRQETEQQKLGSGKRLVVDWTLNIGEQALDICIVSFNQSASSVFVLGERNFFCLKDNGQIRFMKKLDWSPSCFLPYCSVSEGTINTLIGNHNNMLHIYQDVTLKWATQLPHIPVAVRVGCLHDLKGVIVTLSDDGHLQCSYLGTDPSLFQAPNVQSRELNYDELDVEMKELQKIIKDVNKSQGVWPMTEREDDLNVSVVVSPNFDSVSQATDVEVGTDLVPSVTVKVTLQNRVILQKAKLSVYVQPPLELTCDQFTFEFMTPDLTRTVSFSVYLKRSYTPSELEGNAVVSYSRPTDRNPDGIPRVIQCKFRLPLKLICLPGQPSKTASHKITIDTNKSPVSLLSLFPGFASQSDDDQVNVMGFHFLGGARITVLASKTSQRYRIQSEQFEDLWLITNELILRLQEYFEKQGVKDFACSFSGSIPLQEYFELIDHHFELRINGEKLEELLSERAVQFRAIQRRLLARFKDKTPAPLQHLDTLLDGTYKQVIALADAVEENQGNLFQSFTRLKSATHLVILLIALWQKLSADQVAILEAAFLPLQEDTQELGWEETVDAAISHLLKTCLSKSSKEQALNLNSQLNIPKDTSQLKKHITLLCDRLSKGGRLCLSTDAAAPQTMVMPGGCTTIPESDLEERSVEQDSTELFTNHRHLTAETPRPEVSPLQGVSE
partner: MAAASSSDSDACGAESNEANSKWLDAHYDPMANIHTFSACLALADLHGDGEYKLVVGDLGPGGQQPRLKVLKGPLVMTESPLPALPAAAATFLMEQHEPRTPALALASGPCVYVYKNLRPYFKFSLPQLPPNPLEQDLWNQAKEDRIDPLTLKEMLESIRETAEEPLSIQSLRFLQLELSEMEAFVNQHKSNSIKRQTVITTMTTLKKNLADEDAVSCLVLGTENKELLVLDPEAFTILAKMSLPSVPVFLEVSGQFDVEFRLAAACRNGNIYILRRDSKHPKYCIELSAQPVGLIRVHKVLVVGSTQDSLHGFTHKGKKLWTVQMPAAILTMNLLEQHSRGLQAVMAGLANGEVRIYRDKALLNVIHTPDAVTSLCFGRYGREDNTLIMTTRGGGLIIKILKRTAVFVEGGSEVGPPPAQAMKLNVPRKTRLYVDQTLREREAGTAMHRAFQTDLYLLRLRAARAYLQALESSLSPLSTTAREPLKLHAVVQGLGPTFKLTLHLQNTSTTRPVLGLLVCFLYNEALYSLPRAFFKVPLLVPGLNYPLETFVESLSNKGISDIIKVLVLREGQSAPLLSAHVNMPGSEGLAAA

Variants of: B1
Settings: with bbs1_human BBS1, Q8NFJ9

Row | Variant | effect of a mutation on the interaction
1 | K554E | with no effect
2 | K554S | disrupting interaction strength
3 | K443E | with no effect
4 | V885E | with no effect
5 | Q798K | with no effect
6 | Q798E | with no effect
7 | D551E | with no effect
8 | S596K | with no effect
9 | P689E | with no effect
10 | G822E | with no effect
11 | G822K | with no effect
12 | L562A | with no effect
13 | L562E | with no effect
14 | R683K | with no effect
15 | K810E | with no effect
16 | K810A | with no effect
17 | V444A | with no effect
18 | G701E | disrupting interaction strength
19 | G701R | disrupting interaction strength
20 | E406K | with no effect
21 | T731K | with no effect
22 | T731E | with no effect
23 | C783A | with no effect

Row | Variant | effect of a mutation on the interaction
24 | I612A | with no effect
25 | L531K | with no effect
26 | F684E | with no effect
27 | A586K | with no effect
28 | R598A | with no effect
29 | F580K | with no effect
30 | V461A | with no effect
31 | L465K | with no effect
32 | T829E | with no effect
33 | I649E | with no effect
34 | F653A | with no effect
35 | Y490K | with no effect
36 | K456E | with no effect
37 | E408K | with no effect
38 | L611E | with no effect
39 | L411A | with no effect
40 | L411K | with no effect
41 | P641A | with no effect
42 | P641E | with no effect
43 | E663A | with no effect
44 | Q539E | with no effect
45 | Q539A | with no effect
46 | G659E | with no effect

Row | Variant | effect of a mutation on the interaction
47 | V450A | with no effect
48 | L446K | with no effect
49 | V432A | with no effect
50 | V432K | with no effect
51 | E862A | with no effect
52 | C469A | with no effect
53 | V629K | with no effect
54 | F487A | with no effect
55 | P479A | with no effect
56 | L681A | with no effect
57 | K687A | with no effect
58 | D859A | with no effect
59 | D686E | with no effect
60 | D850K | with no effect
61 | A774E | with no effect
62 | T613A | with no effect
63 | N794K | with no effect
64 | L609K | with no effect
65 | L609A | with no effect
66 | L709E | with no effect
67 | L709K | with no effect
68 | L757E | with no effect
69 | F624K | with no effect

Row | Variant | effect of a mutation on the interaction
70 | F566E | with no effect
71 | H694A | with no effect
72 | D631A | with no effect
73 | H581E | with no effect
74 | V442A | with no effect
75 | L452E | with no effect
76 | L642K | with no effect
77 | T725K | with no effect
78 | S639K | with no effect
79 | F864A | with no effect
80 | Q672E | with no effect
81 | C525E | with no effect
82 | N796A | with no effect
83 | P497K | with no effect
84 | H867E | with no effect
85 | F756A | with no effect
86 | S593A | with no effect
87 | A670E | with no effect
88 | Q621A | with no effect
89 | R514E | with no effect
90 | L620K | with no effect
91 | L620E | with no effect
92 | L779A | with no effect
